According to paper PMC11538506:

Biological target: DDX3X WT (MBP) (UniProt O00571 1-662)
Experiment: time-resolved fluorescence anisotropy

DDX3X WT (MBP), sequence (O00571 whole entry): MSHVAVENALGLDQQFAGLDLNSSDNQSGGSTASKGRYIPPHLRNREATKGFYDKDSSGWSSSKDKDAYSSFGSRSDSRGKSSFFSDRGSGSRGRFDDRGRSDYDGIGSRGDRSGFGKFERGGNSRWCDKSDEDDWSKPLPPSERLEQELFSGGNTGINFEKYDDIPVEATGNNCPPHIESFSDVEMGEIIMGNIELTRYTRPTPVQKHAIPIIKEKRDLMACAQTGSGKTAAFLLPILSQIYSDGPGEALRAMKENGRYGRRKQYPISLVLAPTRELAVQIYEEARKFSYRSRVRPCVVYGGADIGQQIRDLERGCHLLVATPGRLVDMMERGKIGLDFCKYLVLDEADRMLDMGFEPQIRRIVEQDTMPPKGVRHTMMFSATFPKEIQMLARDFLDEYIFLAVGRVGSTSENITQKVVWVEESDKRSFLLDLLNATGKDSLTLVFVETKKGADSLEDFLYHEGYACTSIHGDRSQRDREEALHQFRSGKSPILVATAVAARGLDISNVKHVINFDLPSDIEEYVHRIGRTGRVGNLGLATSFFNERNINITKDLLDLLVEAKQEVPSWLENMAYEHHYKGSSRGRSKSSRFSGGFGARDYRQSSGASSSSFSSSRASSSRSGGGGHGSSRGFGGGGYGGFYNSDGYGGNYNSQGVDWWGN

B1: dsRNA anisotropy probe (18/42-mer) (dsRNA)
RNA 1: ACCGCUGCCGUCGCUCCG
RNA 2: UUUUUUUUUUUUUUUUUUUUUUUUCGGAGCGACGGCAGCGGU
  binding result: binds
